In patent publication US20240270846A1 (published 2024):

Molecular target: T1, CD3 epsilon homodimer protein (UniProt P07766 23-126)
T1 construct: construct not described; homodimer as printed; also called CD3 (CD3 epsilon)
Assay: SPR Biacore T200, CD3 epsilon homodimer immobilized; vs unaltered GLS3000;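 also: antibody variants flowed as analyte over CD3 epsilon homodimer amine-coupled to a CM4 chip, at 25 °C in HBS-EP+ running buffer, fitted with Biacore T200 Evaluation Software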

T1 sequence (P07766 23-126): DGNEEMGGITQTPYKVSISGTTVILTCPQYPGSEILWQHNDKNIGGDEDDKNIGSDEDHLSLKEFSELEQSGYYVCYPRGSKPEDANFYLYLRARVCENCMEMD

| Binder | KD ratio to GLS3000 (Affinity up) |
| --- | --- |
| GLS3000 R24G (Kabat) L chain altered form, one-arm antibody with CE115HA000 (antibody, human IgG1, kappa, L234A L235A, N297A, name in Kabat numbering, one-arm antibody) heavy: QVQLVESGGGVVQPGRSLRLSCAASGFTFSNAWMHWVRQAPGKGLEWVAQIKAKSNNYATYYAESVKGRFTISRDDSKNSLYLQMNSLKTEDTAVYYCRYVHYGAYYGVDAWGQGTTVTVSSASTKGPSVFPLAPSSKSTSGGTAALGCLVKDYFPEPVTVSWNSGALTSGVHTFPAVLQSSGLYSLSSVVTVPSSSLGTQTYICNVNHKPSNTKVDKKVEPKSCDKTHTCPPCPAPEAAGGPSVFLFPPKPKDTLMISRTPEVTCVVVDVSHEDPEVKFNWYVDGVEVHNAKTKPREEQYASTYRVVSVLTVLHQDWLNGKEYKCKVSNKALPAPIEKTISKAKGQPREPQVYTLPPSRCELTKNQVSLSCAVKGFYPSDIAVEWESNGQPENNYKTTPPVLDSDGSFFLVSKLTVDKSRWQQGNVFSCSVMHEALHNHYTQKSLSLSPDYKDDDDK EPKSSDKTHTCPPCPAPELLGGPSVFLFPPKPKDTLMISRTPEVTCVVVDVSHEDPEVKFNWYVDGVEVHNAKTKPREEQYNSTYRVVSVLTVLHQDWLNGKEYKCKVSNKALPAPIEKTISKAKGQPREPQVCTLPPSRDELTKNQVSLWCLVKGFYPSDIAVEWESNGQPENNYKTTPPVLDSDGSFFLYSKLTVDKSRWQQGNVFSCSVMHEALHNRYTQKSLSLSP light: DIVMTQSPLSLPVTPGEPASISCGSSQSLVHSNRNTYLHWYQQKPGQAPRLLIYKVSNRFSGVPDRFSGSGSGTDFTLKISRVEAEDVGVYYCGQGTQVPYTFGQGTKLEIKRTVAAPSVFIFPPSDEQLKSGTASVVCLLNNFYPREAKVQWKVDNALQSGNSQESVTEQDSKDSTYSLSSTLTLSKADYEKHKVYACEVTHQGLSSPVTKSFNRGEC | 0.92 |
| GLS3000 R24P (Kabat) L chain altered form, one-arm antibody with CE115HA000 (antibody, human IgG1, kappa, L234A L235A, N297A, name in Kabat numbering, one-arm antibody) heavy: QVQLVESGGGVVQPGRSLRLSCAASGFTFSNAWMHWVRQAPGKGLEWVAQIKAKSNNYATYYAESVKGRFTISRDDSKNSLYLQMNSLKTEDTAVYYCRYVHYGAYYGVDAWGQGTTVTVSSASTKGPSVFPLAPSSKSTSGGTAALGCLVKDYFPEPVTVSWNSGALTSGVHTFPAVLQSSGLYSLSSVVTVPSSSLGTQTYICNVNHKPSNTKVDKKVEPKSCDKTHTCPPCPAPEAAGGPSVFLFPPKPKDTLMISRTPEVTCVVVDVSHEDPEVKFNWYVDGVEVHNAKTKPREEQYASTYRVVSVLTVLHQDWLNGKEYKCKVSNKALPAPIEKTISKAKGQPREPQVYTLPPSRCELTKNQVSLSCAVKGFYPSDIAVEWESNGQPENNYKTTPPVLDSDGSFFLVSKLTVDKSRWQQGNVFSCSVMHEALHNHYTQKSLSLSPDYKDDDDK EPKSSDKTHTCPPCPAPELLGGPSVFLFPPKPKDTLMISRTPEVTCVVVDVSHEDPEVKFNWYVDGVEVHNAKTKPREEQYNSTYRVVSVLTVLHQDWLNGKEYKCKVSNKALPAPIEKTISKAKGQPREPQVCTLPPSRDELTKNQVSLWCLVKGFYPSDIAVEWESNGQPENNYKTTPPVLDSDGSFFLYSKLTVDKSRWQQGNVFSCSVMHEALHNRYTQKSLSLSP light: DIVMTQSPLSLPVTPGEPASISCPSSQSLVHSNRNTYLHWYQQKPGQAPRLLIYKVSNRFSGVPDRFSGSGSGTDFTLKISRVEAEDVGVYYCGQGTQVPYTFGQGTKLEIKRTVAAPSVFIFPPSDEQLKSGTASVVCLLNNFYPREAKVQWKVDNALQSGNSQESVTEQDSKDSTYSLSSTLTLSKADYEKHKVYACEVTHQGLSSPVTKSFNRGEC | 0.34 |
| GLS3000 R24Q (Kabat) L chain altered form, one-arm antibody with CE115HA000 (antibody, human IgG1, kappa, L234A L235A, N297A, name in Kabat numbering, one-arm antibody) heavy: QVQLVESGGGVVQPGRSLRLSCAASGFTFSNAWMHWVRQAPGKGLEWVAQIKAKSNNYATYYAESVKGRFTISRDDSKNSLYLQMNSLKTEDTAVYYCRYVHYGAYYGVDAWGQGTTVTVSSASTKGPSVFPLAPSSKSTSGGTAALGCLVKDYFPEPVTVSWNSGALTSGVHTFPAVLQSSGLYSLSSVVTVPSSSLGTQTYICNVNHKPSNTKVDKKVEPKSCDKTHTCPPCPAPEAAGGPSVFLFPPKPKDTLMISRTPEVTCVVVDVSHEDPEVKFNWYVDGVEVHNAKTKPREEQYASTYRVVSVLTVLHQDWLNGKEYKCKVSNKALPAPIEKTISKAKGQPREPQVYTLPPSRCELTKNQVSLSCAVKGFYPSDIAVEWESNGQPENNYKTTPPVLDSDGSFFLVSKLTVDKSRWQQGNVFSCSVMHEALHNHYTQKSLSLSPDYKDDDDK EPKSSDKTHTCPPCPAPELLGGPSVFLFPPKPKDTLMISRTPEVTCVVVDVSHEDPEVKFNWYVDGVEVHNAKTKPREEQYNSTYRVVSVLTVLHQDWLNGKEYKCKVSNKALPAPIEKTISKAKGQPREPQVCTLPPSRDELTKNQVSLWCLVKGFYPSDIAVEWESNGQPENNYKTTPPVLDSDGSFFLYSKLTVDKSRWQQGNVFSCSVMHEALHNRYTQKSLSLSP light: DIVMTQSPLSLPVTPGEPASISCQSSQSLVHSNRNTYLHWYQQKPGQAPRLLIYKVSNRFSGVPDRFSGSGSGTDFTLKISRVEAEDVGVYYCGQGTQVPYTFGQGTKLEIKRTVAAPSVFIFPPSDEQLKSGTASVVCLLNNFYPREAKVQWKVDNALQSGNSQESVTEQDSKDSTYSLSSTLTLSKADYEKHKVYACEVTHQGLSSPVTKSFNRGEC | 0.87 |
| GLS3000 R24S (Kabat) L chain altered form, one-arm antibody with CE115HA000 (antibody, human IgG1, kappa, L234A L235A, N297A, name in Kabat numbering, one-arm antibody) heavy: QVQLVESGGGVVQPGRSLRLSCAASGFTFSNAWMHWVRQAPGKGLEWVAQIKAKSNNYATYYAESVKGRFTISRDDSKNSLYLQMNSLKTEDTAVYYCRYVHYGAYYGVDAWGQGTTVTVSSASTKGPSVFPLAPSSKSTSGGTAALGCLVKDYFPEPVTVSWNSGALTSGVHTFPAVLQSSGLYSLSSVVTVPSSSLGTQTYICNVNHKPSNTKVDKKVEPKSCDKTHTCPPCPAPEAAGGPSVFLFPPKPKDTLMISRTPEVTCVVVDVSHEDPEVKFNWYVDGVEVHNAKTKPREEQYASTYRVVSVLTVLHQDWLNGKEYKCKVSNKALPAPIEKTISKAKGQPREPQVYTLPPSRCELTKNQVSLSCAVKGFYPSDIAVEWESNGQPENNYKTTPPVLDSDGSFFLVSKLTVDKSRWQQGNVFSCSVMHEALHNHYTQKSLSLSPDYKDDDDK EPKSSDKTHTCPPCPAPELLGGPSVFLFPPKPKDTLMISRTPEVTCVVVDVSHEDPEVKFNWYVDGVEVHNAKTKPREEQYNSTYRVVSVLTVLHQDWLNGKEYKCKVSNKALPAPIEKTISKAKGQPREPQVCTLPPSRDELTKNQVSLWCLVKGFYPSDIAVEWESNGQPENNYKTTPPVLDSDGSFFLYSKLTVDKSRWQQGNVFSCSVMHEALHNRYTQKSLSLSP light: DIVMTQSPLSLPVTPGEPASISCSSSQSLVHSNRNTYLHWYQQKPGQAPRLLIYKVSNRFSGVPDRFSGSGSGTDFTLKISRVEAEDVGVYYCGQGTQVPYTFGQGTKLEIKRTVAAPSVFIFPPSDEQLKSGTASVVCLLNNFYPREAKVQWKVDNALQSGNSQESVTEQDSKDSTYSLSSTLTLSKADYEKHKVYACEVTHQGLSSPVTKSFNRGEC | 0.97 |
| GLS3000 R24T (Kabat) L chain altered form, one-arm antibody with CE115HA000 (antibody, human IgG1, kappa, L234A L235A, N297A, name in Kabat numbering, one-arm antibody) heavy: QVQLVESGGGVVQPGRSLRLSCAASGFTFSNAWMHWVRQAPGKGLEWVAQIKAKSNNYATYYAESVKGRFTISRDDSKNSLYLQMNSLKTEDTAVYYCRYVHYGAYYGVDAWGQGTTVTVSSASTKGPSVFPLAPSSKSTSGGTAALGCLVKDYFPEPVTVSWNSGALTSGVHTFPAVLQSSGLYSLSSVVTVPSSSLGTQTYICNVNHKPSNTKVDKKVEPKSCDKTHTCPPCPAPEAAGGPSVFLFPPKPKDTLMISRTPEVTCVVVDVSHEDPEVKFNWYVDGVEVHNAKTKPREEQYASTYRVVSVLTVLHQDWLNGKEYKCKVSNKALPAPIEKTISKAKGQPREPQVYTLPPSRCELTKNQVSLSCAVKGFYPSDIAVEWESNGQPENNYKTTPPVLDSDGSFFLVSKLTVDKSRWQQGNVFSCSVMHEALHNHYTQKSLSLSPDYKDDDDK EPKSSDKTHTCPPCPAPELLGGPSVFLFPPKPKDTLMISRTPEVTCVVVDVSHEDPEVKFNWYVDGVEVHNAKTKPREEQYNSTYRVVSVLTVLHQDWLNGKEYKCKVSNKALPAPIEKTISKAKGQPREPQVCTLPPSRDELTKNQVSLWCLVKGFYPSDIAVEWESNGQPENNYKTTPPVLDSDGSFFLYSKLTVDKSRWQQGNVFSCSVMHEALHNRYTQKSLSLSP light: DIVMTQSPLSLPVTPGEPASISCTSSQSLVHSNRNTYLHWYQQKPGQAPRLLIYKVSNRFSGVPDRFSGSGSGTDFTLKISRVEAEDVGVYYCGQGTQVPYTFGQGTKLEIKRTVAAPSVFIFPPSDEQLKSGTASVVCLLNNFYPREAKVQWKVDNALQSGNSQESVTEQDSKDSTYSLSSTLTLSKADYEKHKVYACEVTHQGLSSPVTKSFNRGEC | 1.03 |
| GLS3000 R24Y (Kabat) L chain altered form, one-arm antibody with CE115HA000 (antibody, human IgG1, kappa, L234A L235A, N297A, name in Kabat numbering, one-arm antibody) heavy: QVQLVESGGGVVQPGRSLRLSCAASGFTFSNAWMHWVRQAPGKGLEWVAQIKAKSNNYATYYAESVKGRFTISRDDSKNSLYLQMNSLKTEDTAVYYCRYVHYGAYYGVDAWGQGTTVTVSSASTKGPSVFPLAPSSKSTSGGTAALGCLVKDYFPEPVTVSWNSGALTSGVHTFPAVLQSSGLYSLSSVVTVPSSSLGTQTYICNVNHKPSNTKVDKKVEPKSCDKTHTCPPCPAPEAAGGPSVFLFPPKPKDTLMISRTPEVTCVVVDVSHEDPEVKFNWYVDGVEVHNAKTKPREEQYASTYRVVSVLTVLHQDWLNGKEYKCKVSNKALPAPIEKTISKAKGQPREPQVYTLPPSRCELTKNQVSLSCAVKGFYPSDIAVEWESNGQPENNYKTTPPVLDSDGSFFLVSKLTVDKSRWQQGNVFSCSVMHEALHNHYTQKSLSLSPDYKDDDDK EPKSSDKTHTCPPCPAPELLGGPSVFLFPPKPKDTLMISRTPEVTCVVVDVSHEDPEVKFNWYVDGVEVHNAKTKPREEQYNSTYRVVSVLTVLHQDWLNGKEYKCKVSNKALPAPIEKTISKAKGQPREPQVCTLPPSRDELTKNQVSLWCLVKGFYPSDIAVEWESNGQPENNYKTTPPVLDSDGSFFLYSKLTVDKSRWQQGNVFSCSVMHEALHNRYTQKSLSLSP light: DIVMTQSPLSLPVTPGEPASISCYSSQSLVHSNRNTYLHWYQQKPGQAPRLLIYKVSNRFSGVPDRFSGSGSGTDFTLKISRVEAEDVGVYYCGQGTQVPYTFGQGTKLEIKRTVAAPSVFIFPPSDEQLKSGTASVVCLLNNFYPREAKVQWKVDNALQSGNSQESVTEQDSKDSTYSLSSTLTLSKADYEKHKVYACEVTHQGLSSPVTKSFNRGEC | 0.94 |
